Test results from a protein production outcome set (Wang et al. 2014).

Experiment: label from the status in PepcDB records

Sequence	protein production
MEPQEEFITTEEVEQEIVPTVEVEQDVPVDIEGENDDDDEMMNDDEEALEVDMSNNSLTYFDKHTDSVFAIGHHPNLPLVCTGGGDNLAHLWTSHSQPPKFAGTLTGYGESVISCSFTSEGGFLVTADMSGKVLVHMGQKGGAQWKLASQMQEVEEIVWLKTHPTIARTFAFGATDGSVWCYQINEQDGSLEQLMSGFVHQQDCSMGEFINTDKGENTLELVTCSLDSTIVAWNCFTGQQLFKITQAEIKGLEAPWISLSLAPETLTKGNSGVVACGSNNGLLAVINCNNGGAILHLSTVIELKPEQDELDASIESISWSSKFSLMAIGLVCGEILLYDTSAWRVRHKFVLEDSVTKLMFDNDDLFASCINGKVYQFNARTGQEKFVCVGHNMGVLDFILLHPVANTGTEQKRKVITAGDEGVSLVFEVPN	failed
MSDSWARSPSLSGYARQEGKFRVAIGAPRGDIPGQGDSSMSTQTAVLKKDITPQGSDYEIVRRAIEKISLDYRDQPSLEELAEEVGETPTGLQKLFTRWAGLSPKAFLQAVTLDHARRLLDSGMPLLETSFELGMSGPGRLHDLFVTHEAMSPGDYKTRGAGLTIRYGYHASPFGTALIMATDRGLAGLAFSDPGEERAAFADMSSRWPNAIYVEDLAATGPYAARIFDPTLWRPDQPLHVVMIGTDFQVRVWEALLQIPMGKARTYSSIAASIGAPSASRAVGAANGANPLSFVVPCHRAIGKSGDLTGYHWGLTRKRAILGWEAGQVSS	failed
MSTYLIGDIHGCLDELLALLAQVNFDPQQDTLWLTGDLVARGPASLDVLRYVRSLGPAVRMVLGNHDLHLLAVYAGISRNKPKDRITPLLDAPDADELINWLRRQPVLQVDDQLKLIMAHAGITPQWDIETAKMCAREVEAVLSSDSYPLFLDAMYGDMPNNWSPELTGLARLRFSTNALTRMRFCFPNGQLDMICKDTPENAPAPLKPWFDLPRLVDPEYSIIFGHWASLEGKGVPEGIYGLDTGCCWGGDLTLLRWDDKRYFTQRAFKAEAEINNNNGFAAGEAVQH	failed
GDGLKVSFDVTNTGKVAGADTPQLYVTSGQRKAMLRLAGFQKVDLAPGETKRVTLNVEPRILADYDTAKPGWTIAAGTYPLYVGRNAGEPVLTGSAKLKSWSR	failed
MERSAFMELDAGSRLVMHLREWPALLVSSTGWTEFEQLTLDGHNLPSLVCVITGSVDLGVCLHMSSSGLDLPMKVVDMFGCCLPVCAVNFKCLHELVKHEENGLVFEDSEELAALQMLFSNFPDPAGKLNQFWKDLRESQQLRWDESWVQTVLPLVMDIQLLGQRLKPRDPCCPSRSFFSESQGKPF	failed
MDMLHAMRTFTRVVECGSFAAAANALDISAAQVSRIVAELENQLQTRLLHRTTRRLRMSEAGERFLERARQIMLLTEEAVGEARGAHLTPRGHLRLHCPHGMGLLLMPLVAGYNMLYPEVVIELTLSQRNPDPLAEGHDVVITVDGALPDSQLIAVPLGNIFSIPCAAPGYLDTHGVPERPEDLHGHRCLRMAYPMYEGDWVFPQGVDQCVIAPNDSFSTNVADAMLVASELGMGIGLLPFYTASEAIGQGRLCRLLAPYRLRESALYAMYPSRHYLDAKVRTWIDYLKEQLPALFEGHARVVDDARYWR	failed
MYVTRRLSEYQKKPSELKLLPPEGPNSGIMVIQDEESQATCCFGSCYEGRLKGLPFPQNVKLNAAYTSGGGEHQTTHLTPVVFIPVLDQPLSSNLYYVLQRRGKHTGKASASATEEERVSSCFCFSYIPDAKPQEADPYDIYQQFEIHQRRSSSRYYSATSVASDGVPPNYLKRKDWWVSYSTSHDFGLRDDAKGINTKLRLDSELTSLGKSIEIGKWYVPFIFVMEGDVKDQMNKSTFYSVTLQQRWEEVFFCENIGNEHFEVVVDVDVETESVKLEGQETNLREDSGDGVVWFSVLRDEKDDKKIGLGSVVVERMKWEEERFGWLNEAGERSNIKRSERFEGGSSHWKSYRCYVLIESFELTRMDGSLVLTYEFRHVDKLKSKWD	failed
MNILLAFKAEPDAGMLAEKEWQAAQGNSGPDVSLLRSLLGADEQAAAALLLAQRKNGTSMSLTALSMGDERALHWLRYLMALGFEDAVLLETAADLRFAPEFVARHIAEWQYQNPLELIITGCQSSEGQNGQTPFLLAEMLGWPCFTQVERFTLDAPFITLEQRTENGLRCCRVRLPAVIAVRQCGEVALPVPGMRQRMAAGKAEIIRKTVAAEMPAMQCLQLARAEQRRGATLIDGQTVAEKAQKLWQYYLCQRMQ	failed
MAGTDFEPDVKVRSREYRIGCVGAGMIMAECHLAAYAQAGFPVVAIASRTKASAEKVARRWDIPIVHDTPEQLIEDSKVEIVDLAFPPDQQPALIRHALKQPHIKAILAQKPLALTVEEAIKLRDEAAKSGKILSVNQNMRYDQSMRVLKQIIDSGALGDIVFAQIDMHAIPHWQAFLADYDRLTLANMSVHHLDVLRFLFGDPHEITTLTRKDPRTTFDHSDGITVSTLRFPSGVLAVSLEDVWSGPREQGYRDDQHINWRVDGTKGVAKGTIGWPTGVASTLTYASTQTTGGEWVTPSWDTMWFPHAFIGVMEQLQYAVKTGTPPALSVADNVKTMALVEAGYRSMAEGRTVRLSEISTN	failed
MEFEVKKTFGKARLGVMKLHHGAVETPVFMPVGTNASVKLLTPRDLEEAGAEIILSNTFHLMLKPGVEIIKLHRGLHNFMGWKRPILTDSGGFQVFSLPKIRIDDEGVVFRSPIDGSKVFLNPEISMEVQIALGSDICMVFDHCPVPDADYEEVKEATERTYRWALRSKKAFKTENQALFGIVQGGIYPDLRRESALQLTSIGFDGYAIGGLSIGEERSLTLEMTEVTVEFLPEDKPRYFMGGGSPELILELVDRGVDMFDSVFPTRIARHGTALTWNGKLNLKASYNKRSLEPVDERCGCYTCKNFTRSYIHHLFDRGEVLGQILLTIHNINFMISLMKEVRRSIESGTFKELKSKVVEVYSSGGVNV	not failed
MKEELFKEKSRYITGFVLIIVADLILYADNLLLFWAVLGGIYAVGFSEALRLFQVKASFSLYLILVLSWVAAYFNGRPIECALISAMVMASVIAYQKAHHSEAILPFLYPGVGFFALFGVYKDFGAVAIIWLLVVVVASDVGAFFGGKLLGKTPFTPTSPNKTLEGALIGVVLASVLGSFVGMGKLSGGFFMALFFSFLIALVAVFGDLYESYLKRKVGIKDSGKILPGHGGVLDRLDSMLFGALGLHALLYFLEIWKETAVFLGD	failed
MLRKNILAYYGANFLLIIAQSLPHAILTPLLLSKGLSLSEILLVQTFFSFCVLVAEYPSGVLADLMSRKNLFLVSNAFLIASFSFVLFFDSFIFMLLAWGLYGLYSACSSGTIEASLITDIKENKKDLSKFLAKNNQITYLGMIIGSSLGSFLYLKVHAMLYIVGIFLIMLCVLTIIFYFKEKEGDFKSQKSLKLLKEQVKGSLKELKDNPKLKILLVGHLITPVFFMSHFQMWQAYFLKQGVKEQYLFVFYIAFQVISILIHFLKASSYSQKIALSSLVVLLGVSPLLLSNIPYCFIGVYALMVAFFTYMSYCLNYQFSKFVSKNNISSLSSLLSSCVRVVSVLILSLSSLELRYFSPLTIITMHFALTLIILFFFLYKAKPFDE	failed
MRKGLIRNGSYSILLVIYRWFCWAIVLIGIIPVNGVISLAYAATPADWNKGAYAYSAEQTPLSAILADFANSHGVDLVLGNIADNEVTAKIRADNPTLFLDRLALEHRFQWFVYNNALYVSPQDEQASVRLEISPDAAPDIKQALSGIGLIDSRFGWGELPEEGVVLVTGPKAYIDLIRNFSQQREKQDERRKVMIFPLRYASVSDRTLQYRDQKITIPGVATILNELMDGQRAAPAGASGPMPVQPDTGMEAMRDSTRSLMTRLATRTSPGRSGEASSRVTLSGKISADVRNNALLIRDDEKRRAEYQQLVEHIDVPQNLVNIDAIILDVDRTALSRLEANWQAQLGNVSAGSTMMMGRSTLFVSDFKRFFADIQALEGEGTASIVANPSVLTLENQPAIVDFSRTAFITATGERVADIQPVTAGTSLQVTPRVIGEGAQRSIQLVIDIEDGQVETGREGEASGVKRGTVSTQALIGENRALVLGGFHVEESGDRDRRIPILGDIPLLGKLFTSTRHEVSRRERLFILTPHLVGDQTDPTRYVSSVNRQQLNGAMNRVAQRNGKTDLYSLIEGAFRDLASRQLPAGFQADSKGARLGEVCRSQSGLIYDSSRYQWYGNGQVRLSVGVVRNGGTQPQRFDEAACASSRTLAVAVWPKTTLAPGESSEVFLALQPALTAQPTRRNVLISN	failed
MAGGLGKCSKIRHIVRLRQMLRRWRDQARMSSSFSRCVPSDVPSGHVAVYVGSSCRRFVVRATYLNHPVLRNLLVQAEEEFGFVNQGPLVIPCEESVFEESIRFISRSDSTRSRRFTCPDDFQKNCHVVGIRSKLDLWIESRPLLHGVTEKAVW	failed
MSWENPGPPKRADARRNYDRIIEAAAAEVARHGADASLEEIARRAGVGSATLHRHFPSRWGLLQAVFQERVAQLCDEARSLAAEHPPATALTRWLTSLAVFGAVTRGAARSLLPATGTNTGAALDSRCEQLLTEAGADLLARAQEDGTVRDDVTALELLSLANAVSLAAEHTPDAAHHATRLMGIALGGLGAPGPRPQG	not failed
STGKKPKHHVLSHDIIPASKPIAEKLQIQPESPVVELKRILYNDDQPLTFEVTHYPLDLFPGIDTFIADGVSMHDILKQQYKVVPTHNTKLLNVVYAQQEESKYLDCDIGDALFEIDKTAFTSNDQPIYCSLFLMHTNRVTFTINSPYT	not failed
MTPQSDTPKVTGLKLKRKSRQLEISFDNGQQFTLSCELLRVYSPSAEVHGHGNPVLVTHKKNVNINAITPVGNYAVKLVFDDGHDTGLYSWKVLYDLASNQVDLWENYLARLRAAKASREPLIDMAVKYHT	not failed
MPAYDLIIRNGTICDGTGAPRFTGDVAVKNGLIVAVGAVRGDAAEEVDATGRIVAPGWVDVHTHYDGQATWDPEMAPSSWHGVTTVIMGNCGVGFAPAAPDRHDWLIGLMEGVEDIPGTALAEGMAWDWESFPEYLDSLEKMPRAVDVGTHVPHGAVRAYVLGEREKPGAVPTAEDIRKMSEIVEEGVRAGALGFSTSRTVIHKSVDGEVVPGTTATAEELIEIGRAMGRVGHGVFEMASDMKREWDEFGWMGALSRETGLPVTYAALQSIAKEMPLEEQIAEMRHQNAQGANIVAQIALRGNGVIMAWRGTIHPFRFRPSYAAIAELPWEEQLVQLKDPAFRAKVLAEANVYPDSDIVNLFRMIAEGWHNQFIMDEDFDYEPQPEASILLRAKTAGVSPDAFAYDKLMEDEGNGFIYLPILNYADGNLDFLEALQAADDTVNSLSDGGAHCGTICDAASPTFMLQHWVRDRRRGSRISLEHAIKRQCHDTARLYGLDDRGVIAPGYLADINVIDFDRVRLLKPWLAFDLPAGGKRLLQKAEGYDYTIKGGKVTFRNGEWTGATPGNLIRGPQRADLMEAAE	failed
MTRFIHTADWQIGRQYGQFDSDDAAVLAEARLEPVARIAAQASELAVDAVLVAGDVFDTQSVSDRTIRRLFGAMQAYEGPWVLIAGNHDAALADSVWSRARRLECIGTNVHVPQDTAAVELPLAGLAVLAAPLTQRHTYDDVTAAFDTMDSAAGLVRVGLAHGSVADRLPEQADAANPIAPDRAQRARLDYLALGDWHGCLRIDERTWYAGTPEPDRFRGNAPGYALLVEVAAPGAPPQVRQLEVGKYRWSHWVERLDLASDAEDLGHRLAGLQAGDVLRLELHGALSLARRWDALRRDVERAAARVRALVADSAGLVLEPDAADLAALSVDGYVGAAAARLQAMQGDGAQAAAARVALRLLLQYQRELAEGAS	failed
TACKGDYKDAARQVRCGTLVVDETRGDPKSRRITVAVAIVKASEPKAGQPPVVYLHGGPGGSAVGGLPRMLKSKAALEYVAVDQDWIFIDQRGGGQSDPNLDCPGANLTDAGPPSDKDAQAIIACMKAFQAKGVNLSRYNAVEVAKDVQDLRKLLKLPLIDLYGGSYGTRIEAAIQTHAAEGVRAVVQDSPWPPEADWTVGGPAMVSSSIDIVMAKCAKVAECAKRYPDLKAKLAVVAERWLAGPQTINGKTYTADDLGGWLMDASYFTASVLPRDLWKIIEGDVSPVAEFVESRDYYSEGQFMTHLCKEEIPFEARAAVADGTQKDPIARLMVASMQRIHDVCAAIDVGPINKVEQAPVKTAIPTLFLAAEIDPGCPPELTRAAAKGYQGSQVVIVTNATHGVSRSSPCVRKMIRSFFQDPTKPVDRSCLPAADTPMAFMYQ	failed
